The source of these data is US20190233485A1 (LEIDEN UNIVERSITY MEDICAL CENTER, published 2019).

In assay [1] the target is T1, HLA-B*0702 (human).
T1 construct: HLA class I molecule on HLA-typed EBV-LCLs from which the polypeptides were eluted; also called HLA-B7
Put plainly: polypeptides eluted from HLA of HLA-typed EBV-LCLs (HLA elution database); allele as in Table 1.

Assay [2] concerns the target T2, Bob1 (B cell Oct binding protein 1, gene POU2AF1) peptide on HLA-A*02:01 (human).
T2 peptide: YALNHTLSV
Put plainly: multimer staining.

Assay [3] deals with T3, Bob1 (B cell Oct binding protein 1, gene POU2AF1) peptide on HLA-B*07:02 (human).
T3 peptide: APAPTAVVL
Put plainly: multimer staining.

For assay [4], the target named is T4, HLA-A*0201 (human).
T4 construct: HLA class I molecule on HLA-typed EBV-LCLs from which the polypeptides were eluted; also called HLA-A2
Briefly: polypeptides eluted from HLA of HLA-typed EBV-LCLs (HLA elution database); allele as in Table 1.

B1: BOB114 peptide APARPYQGV (peptide)
peptide: APARPYQGV
notes: Bob1-derived peptide from the HLA elution set
B1: the binding result in assay [1] is “binds”.

B2: TCR of T cell clone 3C10 (TCR, V domains shown)
Valpha: GENVEQHPSTLSVQEGDSAVIKCTYSDSASNYFPWYKQELGKGPQLIIDIRSNVGEKKDQRIAVTLNKTAKHFSLHITETQPEDSAVYFCAASTGGGYSTLTFGKGTMLLVSP
Vbeta: DAGVIQSPRHEVTEMGQEVTLRCKPISGHDYLFWYRQTMMRGLELLIYFNNNVPIDDSGMPEDRFSAKMPNASFSTLKIQPSEPRDSAVYFCASSGQGITLAGANVLTFGAGSRLTVL
For the molecule B2, the binding result in assay [2] is on record as “recognises”.

B3: BOB1197 peptide APALPGPQF (peptide)
peptide: APALPGPQF
notes: as for B1
In the case of B3, the binding result in assay [1] is “binds”.

B4: TCR of T cell clone 4G11 (TCR-4G11) (TCR, V domains shown)
Valpha: GENVEQHPSTLSVQEGDSAVIKCTYSDSASNYFPWYKQELGKGPQLIIDIRSNVGEKKDQRIAVTLNKTAKHFSLHITETQPEDSAVYFCAASKGSSNTGKLIFGQGTTLQVKP
Vbeta: DTEVTQTPKHLVMGMTNKKSLKCEQHMGHRAMYWYKQKAKKPPELMFVYSYEKLSINESVPSRFSPECPNSSLLNLHLHALQPEDSALYLCASSHGPASYEQYFGPGTRLTVT
In the case of B4, the binding result in assay [3] is given as “recognises”.

B5: BOB1245 peptide YALNHTLSV (peptide)
peptide: YALNHTLSV
notes: as for B1
Take B5: in assay [4], the binding result was “binds”.

B6: BOB144 peptide APAPTAVVL (peptide)
peptide: APAPTAVVL
notes: as for B1
As to B6, the binding result in assay [1] was “binds”.
